Four molecules from US20050226876A1 (Hoffmann-La Roche, published 2005) can be followed below.

As usually defined, the Kd is the free concentration of one partner at which half of the binding sites on the other are occupied at equilibrium, for simple one-to-one binding. The koff is the rate constant with which the complex falls apart. What is called kon is the second-order rate constant of association.

The labels stand for the following.
B1: HuMab 001 (antibody of cell line hu-Mab<P-selectin>LC 1004-001, DSM ACC2640) (antibody, V domains shown)
VH: EVQLVESGGGLVQPGGSLRLSCAASGFTFSSYDMHWVRQATGKGLEWVSGITTAGDTYYPGSVKGRFTISRENAKNSLYLQMNSLRAGDTAVYYCARGRISMDRGVKNNWFDPWGQGTLVTVSS
VL: EIVLTQSPATLSLSPGERATLSCRASQSVSSYLAWYQQKPGQAPRLLIYDASNRATGIPARFSGSGSGTDFTLTISSLEPEDFAVYYCQQRNNWPLTFGGGTKVEIK
notes: Human monoclonal antibody from transgenic mice; kappa light and gamma1 heavy chains by the cloning section; also called antibody 001; HuMab 1004-001
B2: HuMab 003 (antibody, V domains shown)
VH: QVQLVESGGGVVQPGRSLRLSCAASGFTFSSYGMHWVRQAPGEGLEWVAVIWYDGTFKYYADSVKGRFTISRDNSKNTLSLLMNSLRAEDTAVYYCTRGGYYGSGSSFDYYYYGMDVWGQGTTVTVSS
VL: DIQMTQSPSSLSASVGDRVTITCRASQGISSWLAWYQQKPEKAPKSLIYAASSLQSGVPSRFSGSGSGTDFTLTISSLQPEDFATYYCQQYHSYPLTFGGGTKVEIK
notes: Human monoclonal antibody; also called antibody 003; LC 1004-003
B3: HuMab 005 (antibody, V domains shown)
VH: QVQLVESGGGVVQPGRSLRLSCAASGFTFSSYGMHWVRQAPGEGLEWVAVIWYDGTFKYYADSVKGRFTISRDNSKNTLSLLMNSLRAEDTAVYYCTRGGYYGSGSSFDYYYYGMDVWGQGTTVTVSS
VL: EIVLTQSPATLSLSPGERATLSCRASQSVSSYLAWYQQKPGQAPRLLIYDASNRATGIPARFSGSGSGTDFTLTISSLEPEDFAVYYCQQRSNWPPVTFGQGTRLEIK
notes: Human monoclonal antibody; also called antibody 005
B4: HuMab 017 (antibody of cell line hu-Mab<P-selectin>LC 1004-017, DSM ACC2642) (antibody, V domains shown)
VH: QPQLVQSGAEVKKPGASVKVSCKVSGNTLTELSMHWVRQAPGKGLEWMGGFDPENGEAIYAQKFQGRVTMTADTSTDTAYMDLSSLRSEDTAVYYCATDLAGGSDFYYYGLDVWGQGTTVTVSS
VL: AIQLTQSPSSLSASVGDRVTITCRASQGISSALAWYQQKPGKAPKLLIYDASSLESGVPSRFSGSGSGTDFTLTISSLQPEDFATYYCQQFNSYPYTFGQGTKLEIK
notes: Human monoclonal antibody; also called antibody 017

The target of this test is T1, Recombinant P-selectin (R&D Systems) (human, UniProt P16109 42-771).
T1 construct: extracellular domain; also called recombinant human P-selectin; recombinant truncated form of P-selectin
T1 sequence (looked up): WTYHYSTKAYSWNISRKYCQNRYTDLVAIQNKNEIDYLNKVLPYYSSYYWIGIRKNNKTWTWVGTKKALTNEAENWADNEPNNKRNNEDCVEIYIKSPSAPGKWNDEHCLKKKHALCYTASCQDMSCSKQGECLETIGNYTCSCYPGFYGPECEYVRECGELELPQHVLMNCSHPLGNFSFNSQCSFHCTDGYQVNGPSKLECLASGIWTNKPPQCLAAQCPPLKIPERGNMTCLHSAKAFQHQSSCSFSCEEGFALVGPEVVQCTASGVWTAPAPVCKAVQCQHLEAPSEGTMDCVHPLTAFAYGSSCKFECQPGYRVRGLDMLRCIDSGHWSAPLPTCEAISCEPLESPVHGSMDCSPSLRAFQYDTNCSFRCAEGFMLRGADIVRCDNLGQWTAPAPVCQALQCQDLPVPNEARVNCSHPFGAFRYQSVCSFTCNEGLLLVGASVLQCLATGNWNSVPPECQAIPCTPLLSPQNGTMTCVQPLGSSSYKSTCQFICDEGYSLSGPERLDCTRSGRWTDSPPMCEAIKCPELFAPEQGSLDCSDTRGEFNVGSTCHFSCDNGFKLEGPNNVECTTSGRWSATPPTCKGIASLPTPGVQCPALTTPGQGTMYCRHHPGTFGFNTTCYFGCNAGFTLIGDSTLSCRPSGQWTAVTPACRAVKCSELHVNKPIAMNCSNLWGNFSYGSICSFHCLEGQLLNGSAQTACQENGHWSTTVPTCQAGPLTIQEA
Put plainly: SPR, BIACORE 2000; antibody captured by anti-human Fcγ, recombinant P-selectin 0-50 nM injected; 1:1 Langmuir fit. As to the method: Recombinant P-selectin (R&D Systems) was added in various concentrations between 0-50 nM. Association was measured by P-selectin-injection for 120 seconds; dissociation was measured by washing the chip surface with buffer for 180 seconds. Using Biaevaluation Software the kinetic data were fitted to a 1:1 Langmuir binding model of P-selectin to the presented monoclonal antibody.
(In general: SPR reads the build-up and loss of mass on a sensor chip optically.)
For the molecule B1, the Ka is 1.45e+09 M⁻¹, the Kd worked out at 0.689 nM, the koff is 0.000419 s⁻¹ and the on-rate (kon) was found to be 608000 M⁻¹ s⁻¹.
The matching figures for B2: 2.27e+09 M⁻¹, 0.441 nM, 0.000291 s⁻¹ and 660000 M⁻¹ s⁻¹.
For the molecule B3, the Ka was 2.91e+09 M⁻¹, the Kd was 0.343 nM, the koff is 0.000289 s⁻¹ and the kon was determined as 842000 M⁻¹ s⁻¹.
As for B4, the Ka came out at 5.59e+10 M⁻¹, the Kd worked out at 0.0179 nM, the koff worked out at 1.39e-05 s⁻¹ and the on-rate constant (kon) turned out to be 779000 M⁻¹ s⁻¹.
